Measurements as given in paper PMC12645962.

Key:
[1] = target: 1059-SOSIP soluble Env trimer produced in HEK293 cells grown in BalanCD medium (HIV-1 1059); assay: SEC; HiLoad 16/600 Superdex 200 pg column after GNA lectin affinity purification; trimeric fractions taken
[2] = target: 1059-SOSIP soluble Env trimer produced in FreeStyle 293 F cells (HIV-1 1059); assay: as above

Substance: 1059-SOSIP soluble Env trimer produced in HEK293 cells grown in BalanCD medium (domain or fragment)
- stoichiometry N [1]: 3

Substance: 1059-SOSIP soluble Env trimer produced in FreeStyle 293 F cells (domain or fragment)
- stoichiometry N [2]: 3
